Reference: article PMC3627579
Read-outs that look alike come from different tables or passages of the source.

Legend:
Assay in all cases: ITC
TRBP-D12 [1] = molecular target: T1, TRBP-D12 (Homo sapiens, UniProt Q15633 19-228)
T1 sequence: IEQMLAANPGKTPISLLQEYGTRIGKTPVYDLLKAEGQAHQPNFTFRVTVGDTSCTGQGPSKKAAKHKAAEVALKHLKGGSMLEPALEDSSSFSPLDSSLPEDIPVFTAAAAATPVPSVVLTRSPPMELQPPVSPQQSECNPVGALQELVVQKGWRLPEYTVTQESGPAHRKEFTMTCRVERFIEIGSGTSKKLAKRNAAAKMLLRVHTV

TRBP-D1 = molecular target: T2, TRBP-D1 (Homo sapiens, UniProt Q15633 19-99)
T2 sequence: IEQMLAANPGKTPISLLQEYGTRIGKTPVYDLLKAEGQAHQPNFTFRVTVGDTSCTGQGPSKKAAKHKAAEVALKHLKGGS

TRBP-D12 [2] = molecular target: T1, TRBP-D12; remark: listed apart in the source
TRBP-D2 = molecular target: T3, TRBP-D2 (Homo sapiens, UniProt Q15633 157-228)
T3 sequence: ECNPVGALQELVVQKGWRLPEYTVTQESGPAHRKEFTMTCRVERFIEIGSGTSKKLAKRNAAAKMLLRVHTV

B1: miR-155/miR-155* (dsRNA)
RNA 1: GGAAUGCUAAUCGUGAUAGGCCU
RNA 2: GGCCUACAUAUUAGCAUUCCCA
- Kd (TRBP-D12 [1]): 1000 ± 700 nM

B2: pre-miR-155 (structured_RNA)
RNA: GGAAUGCUAAUCGUGAUAGGGGUUUUUGCCUCCAACUGACUCCUACAUAUUAGCAUUCCCA
- Kd (TRBP-D1): 15400 ± 800 nM
- Kd (TRBP-D12 [2]): 500 nM
- Kd (TRBP-D2): 3700 ± 500 nM
